From the DeepSol protein solubility set come the findings set out here.

This series in a line: soluble on expression in E. coli; label from the status in PepcDB or PDB records.
Regarding “MGRTTTPRDGDAALPPEYHGLHVAPVQPGHEAIEWLTPTNRSDRVRVVQHTCECRTTIYELCRSGGLMFIRRTVRTAKGARVHETERLITARMERLWMRLLLGQAR”, the “soluble on expression in E. coli” value is given as “not soluble”.
Consider “MPTVSVKWQKKVLDGIEIDVSLPPYVFKAQLYDLTGVPPERQKIMVKGGLLKDDGDWAAIGVKDGQKLMMMGTADEIVKAPEKAIVFAEDLPEEALATNLGYSAGLVNLGNTCYMNSTVQCLKSVPELKSALSNYSLAARSNDVDQTSHMLTVATRELFGELDRSVLRKKYPQFSQLQNGMHMQQDAEECWTQLLYTLSQSLKAPTSSEGADAVKALFGVNLQSRIKLGVLDNVTDSTVISKCTLHCQESGEESSETESVYSLKCHISHEVNHLHEGLKHGLKGELEKTSPALGRTALYVKESLIDSLPRYLTVQFVRFFWKRESNQKAKILRKVDYPLVLDIFDLCSEDLRKKLEAPRQKLREEEGKKLGLQTSAKSGSKDSDVKMTDAEASANGSGESSTVNPQEGTSSEKETHMTGIYDLVAVLTHKGRSADSGHYVAWVKQESGKWIQYDDDNPSMQREEDITKLSGGGDWHMAYITMYKARFVSM”, for which the “soluble on expression in E. coli” value is “soluble”.
For the sequence “MAHHHHHHMITDLLFKSQIIYNKKDILCARYILFYQHICKRGYKEAAPKVFNKKSSHTSRWIQRQISDRYVLRAKNDNYRSRAAYKLIELDNKYLFLKKNKIILDIGCYPGSWCQVILERTKNYKNKIIGIDKKIMDPIPNVYFIQGEIGKDNMNNIKNINYIDNMNNNSVDYKLKEILQDKKIDIILSDAAVPCIGNKIDDHLNSCELTLSITHFMEQYINIGGTYIVKMYLGSQTNNLKTYLKGMFQLVHTTKPKASRNESREIYLVCKNFLGRKKITEDVQIKGSFSSKEGYY”, the “soluble on expression in E. coli” value was “not soluble”.
“MSLGEGFPSFEEMVEKELEGYSGFRFLDRGIYAKQLEQWFRFFPKKQFLILKSENFFEDPAKEFRKVICFLNLPVWELPEYANVNWKVLARSKRVERYQKINKETRERLLYYFKPFNDQLYALINKNFGWKEGHHHHHH”: the “soluble on expression in E. coli” value is reported as “not soluble”.
In the case of “MSQNHVIELANTLKQRPIVCDYTGGRFRLTNEGLTYIGIDRDGTPLPPRWICAPLHIVAKTRDAQSGEWGRLLEWQDDDGITHQWAMPLALLQGDASDVRRELARLGLSISPHRTARDLLASYLQVFPVDARARCVDKLGWHGDVFVTASQCIGQSTEKIVFQNTNAIEPAMSIKGSVDKWRDSIGRLASGNSRLVFAISVALAPVLAKIVGEDSGGFHFRGASSSGKSTALSLAASVWGNPQSYCRLWRSTTNGLEGLAALHNDGLLILDELSQMDPREAGEAAYLLANGQGKTRASRTGTVRQSSRWSLFFLSAGEESLTALMAKSGQRINAGQEIRLADIEADAGCQMGIFETIHDQLSPASMALSLKKYSSGYHGAIGRAWLNQVVANRQTISRFITDTIQSFVDIVIQPDATGQIIRVARRFALVAAAGELASQFGLTGWKKGESFHAAKTCFIAWQDAFGVDGHREDRAIMAQVRAFFESHGASRFDNVNSPNNDKILNRAGFYHTDGEGFRIYMVLTETYKNELCKGFDQRTVTRVLLQAGWLKPASDGKLEHHHHHH” it was “not soluble”.
In the case of “MGFGFRHILTEREFTRSFAIQRKLKVIAEEIKADVIITHDTGCTTTFEKNQWIGKAHGMYYPVAVMSDVMFSALACGAHPFKVVQLYWNCSNYEPLLEKMGITNWRELKKEWEDTVKYIAELEKQGKYDELLEFFKEYDLYEPYSKTSDGFKLRKSATADLPLFKS” it was “not soluble”; in that of “ASYWSLQDILLRQGYRENLHPDDLIEGYRELLADSVHRCLQSDVEVGLFLSGGIDSAAVAHFAAEKQDLHTFTVLSQSTFTNEDAKYAHWLAKDLHLPNHQVLYQLGNDELLQPESYKHLLWICETPFCGPEQLYKFHLHKYAKAIRPNLKVMLTGQGSDEFNGGYSTTLSPAENPSWEGFIESVNTMEMNRLHRLQGNIFRVWEEHFGLSPINLSYLKSNDSSQADPWQSYVLTKYRDLQMYNCWHEDRIAAANHIENRVPFLDHRLVEWVCGIPDGLRKDLLWDKSVLRKSLTNELHTSYTHRPKVPFFYGKDVRYTHKMMFHLLKKNNYQLIEEAFSHSDASSIIQVEHIHAIM”, “not soluble”; in that of “MSLQNKTVFVGISGGVDSAVSALLLKQQYREVIGIFMECWDNTLNNDQLGHRAFNEHKSGCSSKEDFREAQAIAQLLGIKLIKQNLVEPY”, “soluble”.
